# Laboratory results: doi:10.1101/2023.09.18.558353
# Molecular target: SARS-CoV-2 wild-type (WT) spike protein trimer (SARS-CoV-2) (UniProt P0DTC2)
# Experiment: SPR
substance,measurement,value
LCB1 mini-binder protein (designed binder),Kd,1.22 nM
